{
  "source": "patent US20050070689A1",
  "about": "(Genentech, published 2005)",
  "binders": {"B1": {"name": "BCMA expressed on transfected cells (receptor)", "chain": "MLQMAGQCSQNEYFDSLLHACIPCQLRCSSNTPPLTCQRYCNASVTNSVKGTNAILWTCLGLSLIISLAVFVLMFLLRKISSEPLKDEFKNTGSGLLGMANIDLEKSRTGDEIILPRGLEYTVEECTCEDCIKSKPKVDSDHCFPLPAMEEGATILVTTKTNDYCKSLPAALSATEIEKSISAR", "notes": "The expression construct is only called 'BCMA'; also called BCMA-transfected cells"}, "B2": {"name": "AP-APRIL (ligand)", "chain": "AVLTQKQKKQHSVLHLVPINATSKDDSDVTEVMWQPALRRGRGLQAQGYGVRIQDAGVYLLYSQVLFQDVTFTMGQVVSREGQGRQETLFRCIRSMPSHPDRAYNSCYSAGVFHLHQGDILSVIIPRARAKLNLSPHGTFLGFVKL", "notes": "APRIL fused C-terminally to AP, AP fused C-terminally to Flag; not shown: human placental alkaline phosphatase (AP)"}, "B3": {"name": "Murine BR3-Fc (Fc fusion)", "chain": "MGARRLRVRSQRSRDSSVPTQCNQTECFDPLVRNCVSCELFHTPDTGHTSSLEPGTALQPQEGSALRPDVA", "notes": "Only 'prepared as described above' is said; also called mBR3-hFc; not shown: human IgG1 Fc region"}},
  "key": {"AP-TALL-1": {"target": "T1, AP-TALL-1 (human, UniProt Q9Y275 136-285)", "T1 construct": "Used as conditioned medium of transfected 293 cells; AP is at the N-terminus of TALL-1; Flag precedes AP (as described for AP-APRIL); not shown: human placental alkaline phosphatase (AP), amplified from pAPtag-5", "T1 sequence (Q9Y275 136-285)": "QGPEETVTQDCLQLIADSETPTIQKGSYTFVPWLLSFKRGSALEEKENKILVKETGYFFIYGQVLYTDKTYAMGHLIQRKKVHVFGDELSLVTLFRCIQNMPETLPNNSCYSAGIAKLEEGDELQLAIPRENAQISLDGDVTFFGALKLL", "experiment": "AP-TALL-1 binding to transfected cells"}, "[1]": {"target": "T2, murine BR3 expressed on transfected COS 7 cells (murine, UniProt Q9D8D0 1-175)", "T2 construct": "also called mBR3", "T2 sequence": "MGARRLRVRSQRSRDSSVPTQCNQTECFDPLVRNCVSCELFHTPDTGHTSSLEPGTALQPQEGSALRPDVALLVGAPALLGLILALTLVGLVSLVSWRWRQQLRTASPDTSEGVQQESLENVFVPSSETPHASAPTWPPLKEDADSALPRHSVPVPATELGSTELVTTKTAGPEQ", "experiment": "AP-ligand conditioned medium on transfected COS 7 cells, in situ AP staining"}, "[2]": {"target": "T3, human TACI (265 amino acid form) expressed on transfected COS 7 cells (human, UniProt O14836 1-258)", "T3 construct": "also called hTACI (265)", "T3 sequence": "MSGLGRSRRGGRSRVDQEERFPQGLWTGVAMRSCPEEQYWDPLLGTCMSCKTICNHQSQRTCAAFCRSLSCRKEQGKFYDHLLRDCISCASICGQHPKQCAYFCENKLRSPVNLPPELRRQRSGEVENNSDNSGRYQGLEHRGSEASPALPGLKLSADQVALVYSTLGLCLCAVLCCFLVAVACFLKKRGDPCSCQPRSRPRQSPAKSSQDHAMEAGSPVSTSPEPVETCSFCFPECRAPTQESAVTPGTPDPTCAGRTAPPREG", "experiment": "AP-ligand conditioned medium on transfected COS 7 cells, in situ AP staining"}, "[3]": {"target": "T4, human BR3 expressed on transfected COS 7 cells (human, UniProt Q96RJ3 1-184)", "T4 construct": "also called hBR3", "T4 sequence": "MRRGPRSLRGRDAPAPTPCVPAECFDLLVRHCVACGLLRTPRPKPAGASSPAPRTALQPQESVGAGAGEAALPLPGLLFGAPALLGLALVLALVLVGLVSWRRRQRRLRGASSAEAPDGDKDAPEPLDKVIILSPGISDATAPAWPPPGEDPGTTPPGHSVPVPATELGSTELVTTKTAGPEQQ", "experiment": "figure legend: AP-ligand conditioned medium on transfected COS 7 cells, in situ AP staining", "procedure": "(a) COS 7 transfected with hBR3 (1,2) or TACI (3,4) were incubated with conditioned medium containing AP-TALL-1 (1,3) or AP-April (2,4). Cells were washed, fixed, and stained for the AP activity in situ. (b) COS7 cells transfected with TALL-1 (1,2) or April (3,4) were incubated with hBR3-hFc (1,3) or TACI-hFc (2,4). Cells were washed, fixed, and bound receptor-hFc protein was detected using a biotinylated goat anti-human antibody followed by Cy3-streptavidin. (c) BR3-hFc (1,2) or TACI-hFc (3,4) was incubated with Flag-TALL-1 (1,3) or Flag-April (2,4). The receptor-Fc fusion proteins precipitated with protein-A-agarose were subjected to immunoblotting with anti-Flag antibody. Equivalent amounts of ligand (middle panel) or receptor-hFc (bottom) were used in the binding experiment. (d) 293E cells (Invitrogen) were transfected with 0.25 ug of a NF-kB luciferase reporter gene construct, 25 ng pRL-TK, and indicated amounts of expression constructs encoding hBR3, mBR3, TACI and BCMA. NF-kB activation was determined 20-24 hours later using the Dual-Luciferase reporter assay kit (Promega)."}, "[4]": {"target": "T5, TACIs expressed on transfected COS 7 cells (human, UniProt O14836 1-292)", "T5 sequence": "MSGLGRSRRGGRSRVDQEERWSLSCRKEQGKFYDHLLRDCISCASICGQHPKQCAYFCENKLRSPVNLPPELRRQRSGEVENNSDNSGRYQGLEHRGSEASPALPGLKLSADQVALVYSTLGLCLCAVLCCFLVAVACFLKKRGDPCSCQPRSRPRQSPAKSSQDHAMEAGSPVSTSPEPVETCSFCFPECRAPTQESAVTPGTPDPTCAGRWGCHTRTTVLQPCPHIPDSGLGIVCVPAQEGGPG", "experiment": "AP-APRIL staining of transfected cells, in situ AP activity"}, "[5]": {"target": "T6, APRIL (full length cDNA clone without Flag tag) expressed on transfected COS 7 cells (human, UniProt O75888 105-250)", "T6 construct": "also called APRIL-transfected COS 7 cells", "T6 sequence": "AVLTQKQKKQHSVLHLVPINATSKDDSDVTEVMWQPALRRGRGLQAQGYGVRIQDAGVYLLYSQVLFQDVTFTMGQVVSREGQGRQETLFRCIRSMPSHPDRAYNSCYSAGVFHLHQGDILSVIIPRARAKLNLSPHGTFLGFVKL", "experiment": "receptor-Fc staining of transfected COS 7 cells, biotinylated anti-human antibody and Cy3-streptavidin", "procedure": "Transfected COS 7 cells were subsequently incubated with TACI.ECD.hFC immunoadhesin, hBr3-hFc, or mBR3-hFc (prepared as described above). Cells were incubated with the TACI ECD-IgG (or a TNFR1-IgG construct prepared as described in Ashkenazi et al., Proc. Natl. Acad. Sci., 88:10535-10539 (1991)) at 1 μg/ml for 1 hour in PBS. Cells were subsequently washed three times with PBS and fixed with 4% paraformaldehyde in PBS. Cell staining was visualized by incubation with biotinylated goat anti-human antibody (Jackson Labs, at 1:200 dilution) followed by Cy3-streptavidin (Jackson Labs, at 1:200 dilution). Murine BR3-Fc, like hBR3-hFc, also only bound TALL-1-transfected but not APRIL-transfected COS 7 cells (data not shown). […] In contrast, TACI-hFc fusion protein bound cells transfected with either TALL-1 or APRIL (FIG. 10)."}},
  "data": [
    {"binder": "B1", "values": [
      {"measurement": "binding result", "setting": "AP-TALL-1", "value": "binds"}
    ]},
    {"binder": "B2", "values": [
      {"measurement": "binding result", "setting": "[1]", "value": "no binding"},
      {"measurement": "binding result", "setting": "[2]", "value": "binds"},
      {"measurement": "binding result", "setting": "[3]", "value": "no binding"},
      {"measurement": "binding result", "setting": "[4]", "value": "binds"}
    ]},
    {"binder": "B3", "values": [
      {"measurement": "binding result", "setting": "[5]", "value": "no binding"}
    ]}
  ]
}
